Test results published in patent US20260055201A1 (SHENGHE CHINA BIOPHARMACEUTICAL, published 2026).
Each block holds one binder with its values, some of them ahead of it.

Assays:
[1] = target: T1, Human 4-1BB His (manufacturer: Acro, CAT: 41B-H5258) (human, UniProt Q07011 24-186); assay: ELISA, human 4-1BB His coated at 0.2 ug/mL, anti-human IgG detection, OD450
T1 construct: Bought protein; also called human 4-1BB protein; 4-1BB protein; not shown: His tag
Experimental: The coating solution was poured off. Each well was washed with 1×PBST at 300 μL, washed 4 times with a plate washer, and patted dry on a flat paper. It was blocked with 3% skim milk powder at 300 μL/well, and incubated at 37° C. for 1 h. The blocking solution was poured off, washed 4 times with a plate washer, and patted dry on a flat paper. Negative control and positive control were set up. […] The positive control and antibody were diluted to 10 μg/mL with 3% skim milk powder as the starting concentration, and then diluted by 3-fold gradient (11 gradients in total), and a blank well was set up and only the diluent was added. It was incubated at 37° C. for 1 h at 100 μL/well. The liquid in the well was discarded, washed 4 times with a plate washer, and patted dry on a flat paper. […] It was washed 6 times with a plate washer, and patted dry on a flat paper. TMB color developing solution was added at 100 μL/well, and wrapped with aluminum foil. Color development was performed at 37° C. in the dark for 8 min. Termination solution 1M HCl was added to terminate the color development reaction at 100 μL/well. Readings were taken at 450 nm on an ELISA reader.

[2] = target: T2, Human TNFR2 mFc (manufacturer: Kaixia, CAT: TN-HM3R2) (human, UniProt P20333 23-257); assay: bridging ELISA: human TNFR2 mFc coated, antibody titrated, then human 4-1BB His 0.3 ug/mL, HRP anti-His detection, OD450
T2 construct: treated as one molecule; also called Human TNFR2 mFC (KaKa, CAT: TNF-HM3R2); human TNFR2 mFC protein; not shown: mFc part
T2 sequence (looked up): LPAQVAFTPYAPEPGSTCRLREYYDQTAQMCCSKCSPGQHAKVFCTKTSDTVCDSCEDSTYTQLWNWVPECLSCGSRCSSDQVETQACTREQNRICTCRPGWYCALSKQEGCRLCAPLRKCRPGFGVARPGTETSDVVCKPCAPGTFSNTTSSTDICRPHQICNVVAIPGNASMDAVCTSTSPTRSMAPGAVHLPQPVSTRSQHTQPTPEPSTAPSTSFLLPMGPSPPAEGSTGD
Experimental: (§1) The coating solution was poured off. Each well was washed with 1×PBST at 300 μL, washed 4 times with a plate washer, and patted dry on a flat paper. It was blocked with 3% skim milk powder at 300 μL/well, and incubated at 37° C. for 1 h. The blocking solution was poured off, washed 4 times with a plate washer, and patted dry on a flat paper. […] Starting at 50 nM, which was used as the initial concentration for 3-fold dilution, a total of 10 gradients were diluted, and a blank well was set up and only the diluent was added. It was incubated at 37° C. for 1 h at 100 μL/well. The liquid in the well was discarded, washed 4 times with a plate washer, and patted dry on a flat paper. Human 4-1BB His (manufacturer: Acro, CAT: 41B-H5258, LOT: 198-2146F1-W6) was diluted to 0.3 μg/mL, 100 μL was added to each well, and incubated at room temperature for 1 h. […] It was washed 6 times with a plate washer, and patted dry on a flat paper. TMB color developing solution was added at 100 μL/well, and wrapped with aluminum foil. Color development was performed at 37° C. in the dark for 8 min. Termination solution 1M HCl was added to terminate the color development reaction at 100 μL/well. Readings were taken at 450 nm on an ELISA reader.

[3] = target: T3, Human 4-1BB Fc (manufacturer: Acro, CAT: 41B-H5258) (human, UniProt Q07011 24-186); assay: bridging ELISA: human 4-1BB Fc coated, antibody titrated, then human TNFR2 His 0.3 ug/mL, HRP anti-His detection, OD450
T3 construct: not shown: Fc part
Experimental: as §1, with “paper.” for “paper. Human 4-1BB His (manufacturer: Acro, CAT: 41B-H5258, LOT: 198-2146F1-W6) was diluted to 0.3 μg/mL, 100 μL was added to each well, and incubated at room temperature for 1 h.”

T3 sequence (Q07011 24-186 limits assumed): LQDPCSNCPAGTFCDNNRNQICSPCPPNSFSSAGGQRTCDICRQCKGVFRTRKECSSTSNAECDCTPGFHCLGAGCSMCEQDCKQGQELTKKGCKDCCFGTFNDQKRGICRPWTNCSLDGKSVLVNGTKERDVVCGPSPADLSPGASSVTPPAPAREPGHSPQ
T1 sequence (Q07011 24-186 limits assumed): as above

EC50 (read off the curve) [1]: ~0.1 nM | EC50 (read off the curve) [2]: ~0.06 nM
B1: TB-C1 (bispecific antibody, human IgG1, kappa)
light: DIQMTQSPSSLSASLGDRVTISCSASQGISNYLNWYQQKPDGTVKLLIYYTSTLHSGVPSRFSGSGSGTDYTLTISSLQPEDIATYYCQQYSKLPWTFGGGTKLEIKRTVAAPSVFIFPPSDEQLKSGTASVVCLLNNFYPREAKVQWKVDNALQSGNSQESVTEQDSKDSTYSLSSTLTLSKADYEKHKVYACEVTHQGLSSPVTKSFNRGEC
heavy: not shown
notes: also called antibody TB-C1

EC50 (read off the curve) [3]: ~0.6 nM
B2: TB-A (bispecific antibody, human IgG1, kappa)
light: B1 light
heavy: not shown
notes: also called antibody TB-A
